B1: SDETGPQIPHRRPTWGPEPEPEPEPIPEPPKEAPVVIEKPKPKPKPKPKPPASDETGPQIPHRRPTW (peptide)
chain: SDETGPQIPHRRPTWGPEPEPEPEPIPEPPKEAPVVIEKPKPKPKPKPKPPASDETGPQIPHRRPTW
modifications: synethic cellulose acetate-binding construct

Assay: Surface Plasmon Resonance binding to spin-coated cellulose acetate surface (Biacore X100)
Conditions: for peptide concentration at which binding response (net RU) started rising: net RU versus peptide concentration, FIG. 6
Procedure: Binding affinity of CA4 peptide and CA4 multimers were assessed by Surface Plasmon Resonance (SPR). The CA surface was prepared by spin-coating 0.75% CA solution in mixed cyclohexanone/methyl ethyl ketone (1/9 weight ratio) solvent at 2000 rpm for 1 minute twice on the Biacore bare gold sensor chip (Biacore Inc., Catalogue numberBR-1004-05; General Electric Corp., Fairfield, Conn.), followed by 80° C. annealing for 15 minutes. The CA resin used was CA-398-10 from Eastman Chemical Company (Kingsport, Tenn.), and the solution prepared was filtered with 0.2 μm PTFE membrane before use. The thickness of the spin-coated CA thin film was measured by Atomic Force Microscope (AFM) to be 26-30 nm.
Binding of each peptide to the CA surface was tested at various concentration ranges in Tris Buffered Saline (TBS, 25 mM Tris, 150 mM NaCl, pH 7.5), using Biacore X100 system. Each peptide solution sample was injected for 2 minutes at flow rate of 30 μL/minute followed by 10 minutes buffer wash. Surface regeneration and stabilization procedure was performed after each peptide solution injection as such: 90 seconds of 1% SLES (sodium laureth sulfate) solution injection and 90 seconds of 2 M NaCl solution injection at flow rate of 10 μL/minute, and 25 minutes stabilization in TBS. For the samples of each peptide at different concentrations, a new sensor chip flow cell was used.
Because a monolithic CA surface made from spin-coating on the whole sensor chip was used as ligand for peptides, no ligand-free reference cell was possible to have in these tests in order to take bulk response out as in conventional SPR protein assay using Biacore instruments. Bulk response refers to the SPR response to the refractive index difference between the sample solution and the running buffer, but not caused by sample binding to the surface. Bulk response completely disappears once sample injection is finished and buffer wash starts. So the response units (RU) remained right after injection was caused by binding and proportional to the mass of peptide bound to the surface, and was named as “net RU” in binding data. […] Typically, association and dissociation rate constant (ka and kd) can be obtained from binding kinetics curve fitting, and dissociation constant (KD). can be determined from the ratio of dissociation rate constant to association rate constant. The use of short linkers (3-6 amino acid residues) in CA4 dimer 1, CA4 dimer 2 and CA4 trimer gave 5 fold improvement on binding affinity compared to CA4 monomer. The use of long rigid linker (TonB linker) in CA4 dimer 4 gave 50 fold improvement on binding affinity compared to CA4 monomer. […] As control, the TonB linker peptide was tested in the same way.

[1] = TBS pH 7.5, from binding kinetics curve fitting

Molecule	binding affinity to CA surface (in words) (SPR)	KD(M) from kinetics (TBS pH 7.5, ratio of kd to ka)	peptide concentration at which binding response (net RU) started rising [µM]	ka [1] [M⁻¹ s⁻¹]	kd [1] [s⁻¹]	Kd (TBS pH 7.5, ratio of kd to ka, read-out: KD(M) from kinetics) [M]	fold improvement on binding affinity compared to CA4 monomer (based on KD of Table 10) [fold]
GPEPEPEPEPIPEPPKEAPWIEKPKPKPKPKPKPA [TonB linker, reference compound]	no binding affinity	undetectable	> 50	–	–	–	–
B1	–	–	5	441.5	0.00089	2e-06	50

Source: patent publication US9278138B2, “Peptide linkers for effective multivalent peptide binding” (E. I. DU PONT DE NEMOURS AND COMPANY, priority 2008, dated 2016)
